In US20250360083A1:

Target: CXCR4 receptor on J-Lat8.4, Jurkat E6 and U1 cells (human) (UniProt P61073)
Assay: cell-based or functional assay

Substance: cyclic peptide cyclo (D-Tyr-Orn-Arg-Nal-Gly-) (CycPep), conjugated to DSPE-PEG and displayed on CXCR4 targeted lipid nanoparticles (T-LNP)
- viral DNA excision (excised band intensity on gel), J-Lat8.4 and Jurkat E6 against U1: 4 fold
- viral excision: < 60%
